Test results reported in PMC8521288.
Where two headings read alike, the source gives them in different places.

B1: MMP-9 aptamer (annealed to comp-1 on AuNS-1; MMP sensor) (mixed)
DNA 1: TCGTATGGCACGGGGTTGGTGTTGGGTTGG
DNA 2: GGTGTGCCATACGAAA
modifications: 3' ThioMC3-D (thiol) on comp-1
B2: control aptamer (annealed to control comp-1 on cAuNS-1; control sensor) (mixed)
DNA 1: CCGGTGTTCGAGACAAGAGTCCAGGG
DNA 2: CTCTCGAACACCGGAA
modifications: 3' ThioMC3-D (thiol) on control comp-1

How the values were obtained:
[1] = biological target: T1, human MMP-9 (hMMP-9) (Homo sapiens, UniProt P14780 107-457); test: AuNS aggregation by strand displacement
[2] = biological target: T1, human MMP-9 (hMMP-9); test: AuNS aggregation by strand displacement; remark: listed apart in the source

T1 sequence (P14780 107-457): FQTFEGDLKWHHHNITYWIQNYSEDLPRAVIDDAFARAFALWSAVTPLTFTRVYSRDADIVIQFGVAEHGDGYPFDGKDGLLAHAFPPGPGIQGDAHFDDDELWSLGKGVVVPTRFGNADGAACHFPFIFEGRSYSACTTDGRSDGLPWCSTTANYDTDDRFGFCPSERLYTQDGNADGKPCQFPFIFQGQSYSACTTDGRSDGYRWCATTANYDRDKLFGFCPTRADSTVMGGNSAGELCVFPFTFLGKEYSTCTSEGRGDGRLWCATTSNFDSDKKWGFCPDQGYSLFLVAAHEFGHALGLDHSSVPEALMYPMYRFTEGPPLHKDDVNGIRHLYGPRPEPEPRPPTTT

Row | Binder | binding result [1] | binding result [2]
1 | B1 | binds | 
2 | B2 |  | no binding
